# Target: endogenous BMP released from the ES cells (BMP4) (mouse) (UniProt P21275)
# Experiment: cell-based or functional assay
# Chain of UniProt P21275 (P21275 293-408 limits assumed): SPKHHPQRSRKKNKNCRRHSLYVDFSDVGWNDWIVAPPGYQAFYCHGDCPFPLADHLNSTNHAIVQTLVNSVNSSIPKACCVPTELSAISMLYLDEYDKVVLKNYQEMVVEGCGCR
substance,measurement,value
mouse Cerberus-like (mCer-1) protein (from UniProt O55233 18-272) (ligand),"numbers of primary neural stem cell colonies generated (ES cells in LIF, 20% v/v mCer-1 supernatant)",50 % increase

# Reference: patent US20020164791A1
